The supplement of paper PMC7877785
± gives the uncertainty stated by the source.

Test: self-splicing fitness, log relative to wild type (ln ratio); higher = more splicing; Tetrahymena group I intron in knt gene, E. coli kanamycin selection, DiMSum; sequences stand for … in CUCUCU…GGAGGGAAAAGUUAUCAGGCAUGCACCUGGUAGCUAGUCUUUAAACCAAUAGAUUGCAUCGGUUUAAAAGGCAAGACCGUCAAAUUGCGGGAAAGGGGUCAACAGCCGUUCAGUACCAAGUCUCAGGGGAAACUUUGAGAUGGCCUUGCAAAGGGUAUGGUAAUAAGCUGACGGACAUGGUCCUAACCACGCAGCCAAGUCCUAAGUCAACAGAUCUUCUGUUGAUAUGGAUGCAGUUCACAGACUAAAUGUCGGUCGGGGAAGAUGUAUUCUUCUCAUAAGAUAUAGUCGGACCUCUCCUUAAUGGGAGCUAGCGGAUGAAGUGAUGCAACACUGGAGCCGCUGGGAACUAAUUUGUAUGCGAAAGUAUAUUGAUUAGUUUUGGAGUACUCGUGGUCG
Summary of the method: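 The eight P1ex-region nucleotides of an intron in the knt kanamycin-resistance gene on pET-22b(+) were all randomised and the library put into E. coli BL21(DE3). Six replicate transformations were grown overnight at 37°C or 30°C on LB agar with or without 25 μg/mL kanamycin, together with 100 μg/mL carbenicillin, 50 μM IPTG and 0.2% rhamnose. Colonies were pooled and amplicon-sequenced on an Illumina HiSeq 2500. Fitness from DiMSum is the error-weighted combination of wild-type-normalised replicate fold changes, kanamycin over none.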

Sequence | self-splicing fitness (ln) (30 °C) | self-splicing fitness (ln) (37 °C)
CCUCAGCAAUAUUACGAGUU | -2.31 ± 0.1 | -1.11 ± 0.093
CCUCAGCAAUAUUACGAUGA | -2.63 ± 0.21 | -2.8 ± 0.28
CCUCAGCAAUAUUACGAUGU | -3.41 ± 0.15 | -1.3 ± 0.12
CCUCAGCAAUAUUACGAUUG | -1.31 ± 0.068 | -0.558 ± 0.084
CCUCAGCAAUAUUACGAUUU | -4.46 ± 0.22 | -1.39 ± 0.15
CCUCAGCAAUAUUACGCACG | -2.46 ± 0.17 | -1.06 ± 0.18
CCUCAGCAAUAUUACGCCAU | -2.88 ± 0.35 | -1.8 ± 0.18
CCUCAGCAAUAUUACGCCCG | -0.527 ± 0.15 | -0.422 ± 0.18
CCUCAGCAAUAUUACGCCUU | -3.95 ± 0.3 | -2.17 ± 0.22
CCUCAGCAAUAUUACGCUGU | -2.84 ± 0.17 | -2.05 ± 0.25
CCUCAGCAAUAUUACGGAGG | -4.45 ± 0.24 | -2.33 ± 0.21
CCUCAGCAAUAUUACGGCCA | -2.68 ± 0.33 | -2.62 ± 0.33
CCUCAGCAAUAUUACGGCGA | -3.72 ± 0.31 | -2.79 ± 0.22
CCUCAGCAAUAUUACGGUAU | -4.53 ± 0.24 | -2.52 ± 0.15
CCUCAGCAAUAUUACGUCAG | -2.92 ± 0.097 | -1.73 ± 0.1
CCUCAGCAAUAUUACGUCUG | -3.75 ± 0.23 | -1.79 ± 0.19
CCUCAGCAAUAUUACGUGAC | -3.76 ± 0.22 | -2.66 ± 0.24
CCUCAGCAAUAUUACGUGAU | -2.84 ± 0.2 | -2.71 ± 0.43
CCUGAGCAAUAUUACGAAGC | -2.38 ± 0.14 | -2.58 ± 0.3
CCUGAGCAAUAUUACGACAU | -3.785 ± 0.027 | -2.87 ± 0.042
CCUGAGCAAUAUUACGACCA | -2.89 ± 0.44 | -2.06 ± 0.38
CCUGAGCAAUAUUACGAGGC | -3.18 ± 0.43 | -1.54 ± 0.26
CCUGAGCAAUAUUACGAUAG | -1.55 ± 0.085 | -0.775 ± 0.089
CCUGAGCAAUAUUACGAUCC | -4.29 ± 0.47 | -2.96 ± 0.48
CCUGAGCAAUAUUACGAUCG | -3.71 ± 0.27 | -3.46 ± 0.3

Sequence | self-splicing fitness (ln) (30 °C) | self-splicing fitness (ln) (37 °C)
CCUGAGCAAUAUUACGCAAC | -2.76 ± 0.33 | -1.78 ± 0.27
CCUGAGCAAUAUUACGCAAU | -3.31 ± 0.19 | -2.68 ± 0.24
CCUGAGCAAUAUUACGCACG | -3.16 ± 0.47 | -2.09 ± 0.37
CCUGAGCAAUAUUACGCACU | -4.16 ± 0.3 | -2.8 ± 0.24
CCUGAGCAAUAUUACGCAGU | -2.91 ± 0.2 | -2.84 ± 0.28
CCUGAGCAAUAUUACGCCGU | -3.18 ± 0.45 | -1.61 ± 0.39
CCUGAGCAAUAUUACGCGUA | -3.77 ± 0.34 | -2.33 ± 0.23
CCUGAGCAAUAUUACGCGUC | -2.89 ± 0.27 | -3.02 ± 0.4
CCUGAGCAAUAUUACGCUCC | – | -3.8 ± 0.33
CCUGAGCAAUAUUACGCUUA | -2.31 ± 0.24 | -2.27 ± 0.39
CCUGAGCAAUAUUACGGAGG | -3.56 ± 0.24 | -2.54 ± 0.26
CCUGAGCAAUAUUACGGAUG | -1.52 ± 0.057 | -1.31 ± 0.078
CCUGAGCAAUAUUACGGGUU | -4.27 ± 0.34 | -2.56 ± 0.31
CCUGAGCAAUAUUACGGUCA | -2.92 ± 0.24 | -2.46 ± 0.33
CCUGAGCAAUAUUACGUAAU | -2.24 ± 0.2 | -2.6 ± 0.25
CCUGAGCAAUAUUACGUAUA | -3.53 ± 0.23 | -2.51 ± 0.24
CCUGAGCAAUAUUACGUGGC | -3.15 ± 0.24 | –
CCUGAGCAAUAUUACGUUUA | -3.15 ± 0.15 | -1.57 ± 0.17
CCUUAGCAAUAUUACGAGGU | -4.03 ± 0.15 | -2.52 ± 0.15
CCUUAGCAAUAUUACGAGUG | -1.07 ± 0.082 | 0.122 ± 0.11
CCUUAGCAAUAUUACGAUAG | -2.77 ± 0.12 | -2.37 ± 0.18
CCUUAGCAAUAUUACGAUCA | – | -2.51 ± 0.38
CCUUAGCAAUAUUACGCCAA | -2.7 ± 0.34 | -0.755 ± 0.31
CCUUAGCAAUAUUACGCCUA | -2.69 ± 0.48 | -1.4 ± 0.35
CCUUAGCAAUAUUACGGCAC | -3.69 ± 0.29 | -2.71 ± 0.44

Sequence | self-splicing fitness (ln) (30 °C) | self-splicing fitness (ln) (37 °C)
CCUUAGCAAUAUUACGGCCU | – | -0.938 ± 0.34
CCUUAGCAAUAUUACGGCUA | -2.52 ± 0.45 | -1.75 ± 0.37
CCUUAGCAAUAUUACGGGCU | -4.07 ± 0.28 | -2.87 ± 0.22
CCUUAGCAAUAUUACGGGGU | -4.43 ± 0.28 | -2.08 ± 0.19
CCUUAGCAAUAUUACGUAAC | -4.41 ± 0.22 | -2.41 ± 0.18
CCUUAGCAAUAUUACGUAUC | -4.15 ± 0.27 | -2.17 ± 0.26
CCUUAGCAAUAUUACGUGUG | -1.61 ± 0.063 | -0.595 ± 0.078
CGAAAGCAAUAUUACGACUA | -1.51 ± 0.14 | -0.539 ± 0.13
CGAAAGCAAUAUUACGAGGU | – | -1.64 ± 0.3
CGAAAGCAAUAUUACGAGUU | -3.72 ± 0.44 | -2.21 ± 0.23
CGAAAGCAAUAUUACGCAUC | – | -2.75 ± 0.36
CGAAAGCAAUAUUACGCAUU | -4.46 ± 0.42 | -2.94 ± 0.37
CGAAAGCAAUAUUACGCCGU | -2.98 ± 0.16 | -0.862 ± 0.12
CGAAAGCAAUAUUACGCGAA | -1.82 ± 0.24 | -2.02 ± 0.3
CGAAAGCAAUAUUACGCUAA | -3.88 ± 0.4 | -1.53 ± 0.21
CGAAAGCAAUAUUACGCUAC | -2.53 ± 0.3 | –
CGAAAGCAAUAUUACGGAGC | -4.16 ± 0.25 | -2.22 ± 0.16
CGAAAGCAAUAUUACGGCUG | 0.127 ± 0.11 | 0.181 ± 0.13
CGAAAGCAAUAUUACGGUAU | -3.81 ± 0.29 | -1.2 ± 0.19
CGAAAGCAAUAUUACGGUUA | -1.85 ± 0.12 | -2.11 ± 0.1
CGAAAGCAAUAUUACGUCCC | -0.693 ± 0.14 | -0.0504 ± 0.23
CGAAAGCAAUAUUACGUGGU | -3.92 ± 0.14 | -2.11 ± 0.13
CGAAAGCAAUAUUACGUUUC | -3.81 ± 0.2 | -2.15 ± 0.16
CGACAGCAAUAUUACGAAAC | -3.49 ± 0.27 | -2.39 ± 0.25
CGACAGCAAUAUUACGACCA | -0.898 ± 0.1 | -0.397 ± 0.12

Sequence | self-splicing fitness (ln) (30 °C) | self-splicing fitness (ln) (37 °C)
CGACAGCAAUAUUACGACUG | -1.32 ± 0.089 | -0.0407 ± 0.14
CGACAGCAAUAUUACGAGCC | -3.59 ± 0.22 | -1.68 ± 0.26
CGACAGCAAUAUUACGAGGC | -1.34 ± 0.13 | -2.49 ± 0.31
CGACAGCAAUAUUACGAUUA | -1.99 ± 0.12 | -0.873 ± 0.1
CGACAGCAAUAUUACGCAUC | -3.1 ± 0.14 | -2.75 ± 0.25
CGACAGCAAUAUUACGCCAU | -3.77 ± 0.3 | -1.51 ± 0.32
CGACAGCAAUAUUACGCGUA | -1.75 ± 0.28 | -1.58 ± 0.15
CGACAGCAAUAUUACGGCUU | -3.12 ± 0.16 | -1.6 ± 0.14
CGACAGCAAUAUUACGGGUU | -3.47 ± 0.12 | -2.01 ± 0.12
CGACAGCAAUAUUACGGUCC | -1.13 ± 0.11 | -0.69 ± 0.14
CGACAGCAAUAUUACGGUUA | -0.601 ± 0.062 | 0.0311 ± 0.067
CGACAGCAAUAUUACGUAAA | -3.02 ± 0.15 | -2.28 ± 0.21
CGACAGCAAUAUUACGUACA | -0.66 ± 0.078 | -0.392 ± 0.099
CGACAGCAAUAUUACGUAGA | -3.57 ± 0.13 | -2.12 ± 0.15
CGACAGCAAUAUUACGUAGC | -3.61 ± 0.18 | -2.21 ± 0.16
CGACAGCAAUAUUACGUAUU | -3.09 ± 0.14 | -2.53 ± 0.16
CGACAGCAAUAUUACGUCAA | -1.99 ± 0.14 | -1.21 ± 0.12
CGACAGCAAUAUUACGUCCC | -0.895 ± 0.47 | –
CGACAGCAAUAUUACGUCUC | -1.98 ± 0.13 | -2.13 ± 0.2
CGACAGCAAUAUUACGUGAC | -3.67 ± 0.24 | -2.61 ± 0.31
CGACAGCAAUAUUACGUGGG | -3.19 ± 0.14 | -1.54 ± 0.1
CGACAGCAAUAUUACGUUCC | -1.82 ± 0.11 | -0.935 ± 0.14
